Experimental data: article PMC2577339 (Nucleic Acids Research, 2008)

Molecular target: the molecule itself
Test: glycerol gradient sedimentation + SEC

B1: Topoisomerase IIα (enzyme)
chain: MEVSPLQPVNENMQVNKIKKNEDAKKRLSVERIYQKKTQLEHILLRPDTYIGSVELVTQQMWVYDEDVGINYREVTFVPGLYKIFDEILVNAADNKQRDPKMSCIRVTIDPENNLISIWNNGKGIPVVEHKVEKMYVPALIFGQLLTSSNYDDDEKKVTGGRNGYGAKLCNIFSTKFTVETASREYKKMFKQTWMDNMGRAGEMELKPFNGEDYTCITFQPDLSKFKMQSLDKDIVALMVRRAYDIAGSTKDVKVFLNGNKLPVKGFRSYVDMYLKDKLDETGNSLKVIHEQVNHRWEVCLTMSEKGFQQISFVNSIATSKGGRHVDYVADQIVTKLVDVVKKKNKGGVAVKAHQVKNHMWIFVNALIENPTFDSQTKENMTLQPKSFGSTCQLSEKFIKAAIGCGIVESILNWVKFKAQVQLNKKCSAVKHNRIKGIPKLDDANDAGGRNSTECTLILTEGDSAKTLAVSGLGVVGRDKYGVFPLRGKILNVREASHKQIMENAEINNIIKIVGLQYKKNYEDEDSLKTLRYGKIMIMTDQDQDGSHIKGLLINFIHHNWPSLLRHRFLEEFITPIVKVSKNKQEMAFYSLPEFEEWKSSTPNHKKWKVKYYKGLGTSTSKEAKEYFADMKRHRIQFKYSGPEDDAAISLAFSKKQIDDRKEWLTNFMEDRRQRKLLGLPEDYLYGQTTTYLTYNDFINKELILFSNSDNERSIPSMVDGLKPGQRKVLFTCFKRNDKREVKVAQLAGSVAEMSSYHHGEMSLMMTIINLAQNFVGSNNLNLLQPIGQFGTRLHGGKDSASPRYIFTMLSSLARLLFPPKDDHTLKFLYDDNQRVEPEWYIPIIPMVLINGAEGIGTGWSCKIPNFDVREIVNNIRRLMDGEEPLPMLPSYKNFKGTIEELAPNQYVISGEVAILNSTTIEISELPVRTWTQTYKEQVLEPMLNGTEKTPPLITDYREYHTDTTVKFVVKMTEEKLAEAERVGLHKVFKLQTSLTCNSMVLFDHVGCLKKYDTVLDILRDFFELRLKYYGLRKEWLLGMLGAESAKLNNQARFILEKIDGKIIIENKPKKELIKVLIQRGYDSDPVKAWKEAQQKVPDEEENEESDNEKETEKSDSVTDSGPTFNYLLDMPLWYLTKEKKDELCRLRNEKEQELDTLKRKSPSDLWKEDLATFIEELEAVEAKEKQDEQVGLPGKGGKAKGKKTQMAEVLPSPRGQRVIPRITIEMKAEAEKKNKKKIKNENTEGSPQEDGVELEGLKQRLEKKQKREPGTKTKKQTTLAFKPIKKGKKRNPWSDSESDRSSDESNFDVPPRETEPRRAATKTKFTMDLDSDEDFSDFDEKTDDEDFVPSDASPPKTKTSPKLSNKELKPQKSVVSDLEADDVKGSVPLSSSPPATHFPDETEITNPVPKKNVTVKKTAAKSQSSTSTTGAKKRAAPKGTKRDPALNSGVSQKPDPAKTKNRRKRKPSTSDDSDSNFEKIVSKAVTSKKSKGESDDFHMDFDSAVAPRAKSVRAKKPIKYLEESDEDDLF
Q: How did the “stoichiometry N” value turn out when B1 was run?
A: 2
